According to article PMC7566476, “MYB61 is regulated by GRF4 and promotes nitrogen utilization and biomass production in rice”:

Key:
GST-GRF4 [1] = biological target: T1, GST-GRF4 (UniProt Q6ZIK5); assay: EMSA; settings: EMSA binding buffer (Beyotime; composition, salt and pH not given), 4 °C; unlabeled competitor 50-, 100- and 500-fold
T1 sequence: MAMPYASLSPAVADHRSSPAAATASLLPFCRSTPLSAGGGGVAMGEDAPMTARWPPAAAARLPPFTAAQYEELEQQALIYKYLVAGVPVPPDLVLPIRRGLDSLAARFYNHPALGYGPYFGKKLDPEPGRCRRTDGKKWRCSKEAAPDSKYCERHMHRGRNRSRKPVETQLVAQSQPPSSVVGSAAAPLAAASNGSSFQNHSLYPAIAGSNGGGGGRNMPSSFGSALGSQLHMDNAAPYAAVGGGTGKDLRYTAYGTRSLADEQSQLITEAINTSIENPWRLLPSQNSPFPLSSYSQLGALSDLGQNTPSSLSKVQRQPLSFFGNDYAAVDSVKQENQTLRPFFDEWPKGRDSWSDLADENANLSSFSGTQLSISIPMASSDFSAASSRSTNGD

GST-GRF4 [2] = biological target: T2, GST-GRF4 (UniProt Q6ZIK5 1-394); assay: EMSA; EMSA binding buffer (Beyotime; composition, salt and pH not given), 4 °C; unlabeled competitor 50-, 100- and 500-fold; settings: protein: recombinant; tags: N-terminal GST (pGEX-6P-1); label: biotin; blunt
T2 sequence: T1 sequence

Molecule: AATCTGTGCTCCAATCCAAGAAGATCATCTCTGGCACCTCTCAAGATGCTAAGCAATCAGCTGTGAGAACCAGGCCTATGCTGATGATTGCTTTTGCAGAGTTACAAACAGCATGATTTCCTCACTGGCCGTATTCTCGCTCAGAAGCAAATCCCAAT (double strand) [MYB61 promoter P1 fragment]
- binding (GST-GRF4 [1]): no binding

B1: MYB61 promoter motif 2 probe (within P8) (dsDNA)
DNA 1: CAAAAAGGCTGCGGTAATTAAGTCACAGTA
DNA 2: TACTGTGACTTAATTACCGCAGCCTTTTTG
- binding result (GST-GRF4 [2]): binds
